Blank lines part the entries; values can stand above or below the binder they belong to.
Tests used:
[1] = target: cynomolgus monkey PCSK9, V5-6xHIS tagged (cynomolgus monkey); assay: SPR (Biacore 2000), antibody amine-coupled on CM5 chip, PCSK9 injected, pH 7.4
[2] = target: cynomolgus monkey PCSK9, V5-6xHIS tagged (cynomolgus monkey); assay: Biacore solution equilibrium assay: PCSK9 mixed with 21B12.1, free PCSK9 read on immobilised 21B12
[3] = target: cynomolgus monkey PCSK9, V5-6xHIS tagged (cynomolgus monkey); assay: KinExA solution equilibrium, PCSK9-coated beads; cyno PCSK9

Kd [1]: 0.36 nM | Kd [2]: 0.011 nM
B1: 21B12, anti-PCSK9 huIgG4 (antibody, V domains shown)
VH: QVQLVQSGAEVKKPGASVKVSCKASGYTLTSYGISWVRQAPGQGLEWMGWVSFYNGNTNYAQKLQGRGTMTTDPSTSTAYMELRSLRSDDTAVYYCARGYGMDVWGQGTTVTVSS
VL: QSALTQPASVSGSPGQSITISCTGTSSDVGGYNSVSWYQQHPGKAPKLMIYEVSNRPSGVSNRFSGSKSGNTASLTISGLQAEDEADYYCNSYTSTSMVFGGGTKLTVLQ

Kd [1]: 0.87 nM | Kd [3]: 0.016 nM
B2: 16F12, anti-PCSK9 huIgG4 (antibody, V domains shown)
VH: QVHLVESGGGVVQPGRSLRLSCAASGFTFNSFGMHWVRQAPGKGLEWVALIWSDGSDEYYADSVKGRFTISRDNSKNTLYLQMNSLRAEDTAVYYCARAIAALYYYYGMDVWGQGTTVTVSS
VL: QSVLTQPPSVSAAPGQKVTISCSGSSSNIGNNFVSWYQQLPGTAPKLLIYDYNKRPSGIPDRFSGSKSGTSATLGITGLQTGDEADYYCGTWDSSLSAYVFGTGTRVTVLQ
